Test results reported in the supplement of paper PMC10567573.
± gives the standard deviation.

Assay: protein stability index of a GFP-peptide fusion (GPS, HEK-293T) (PSI 1-6); higher = more stable
[1] = treatment: DMSO, c terminus: a fixed tail appended
[2] = treatment: MLN4924 1 uM, 8 h, c terminus: a fixed tail appended
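Also: 24-mer peptide tiles fused after GFP, lentivirally expressed, FACS-sorted into six equal bins by GFP/DsRed ratio, decoded by Illumina sequencing, PSI is the read-weighted mean bin number.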

Sequence | protein stability index [1] | protein stability index [2] | protein stability index (treatment: DMSO, c terminus: native) | protein stability index (treatment: MLN4924 1 uM, 8 h, c terminus: native)
LVQLDDYRFASAGDDGIVVVWNAQ [WDR41] | 2.64 ± 0.28 | 2.87 ± 0.31 | – | –
EGNSMRCGRKLAKDGEYCWRWTGF [GMCL1] | 2.49 ± 0.22 | 2.11 ± 0.14 | – | –
AQEALREKAAALERQLKVMASDHR [LRRC45] | 4.26 ± 0.27 | 4.29 ± 0.23 | – | –
KPILLHQVEALAAAGVDHVILAVS [GMPPB] | 2.55 ± 0.48 | 2.61 ± 0.5 | – | –
RYFYLLENIAWVKSYNICFELEDS [PDS5B] | 2.75 ± 0.2 | 2.05 ± 0.61 | – | –
KKGSNGYGFYLRAGSEQKGQIIKD [PDZK1] | 3.19 ± 0.44 | 3.33 ± 0.27 | – | –
GEGKLSKRLKHKDDSVMKATQQAR [C22orf31] | 4.64 ± 0.21 | 4.81 ± 0.22 | – | –
YTEQELKPLTLEALGHLGNDDSAD [DLC1] | 5.43 ± 0.12 | 5.43 ± 0.16 | – | –
MARVAWGLLWLLLGSAGAQYEKYS [P3H4] | 3.18 ± 0.83 | 3.16 ± 0.48 | – | –
VLEWGAEGVAGKSGLEKEVQRLTS [FCHSD1] | 4.1 ± 0.16 | 4.09 ± 0.22 | – | –
ETHLRHMKALLGSYAHSVEDTHVQ [FCHO1] | 3.49 ± 0.5 | 3.35 ± 0.29 | – | –
RQVNIRTANCTTANQNCVNKSKLL [KCNA1] | 3.51 ± 0.12 | 3.48 ± 0.28 | – | –
QVEALAAAGVDHVILAVSYMSQVL [GMPPB] | 2.92 ± 0.65 | 2.48 ± 0.45 | – | –
SSSTLMSSELETTSFFDSDEDDST [DVL3] | 5.54 ± 0.38 | 5.61 ± 0.14 | – | –
LYVLKGGYKEFFMKCQSYCEPPSY [CDC25A] | 2.62 ± 0.68 | 2.65 ± 0.27 | – | –
QPYTCSICRRNFSRRSSLLRHQKL [ZNF75A] | 3.43 ± 0.37 | 3.71 ± 0.35 | – | –
SWQDLKDHMREAGDVCYADVYRDG [SRSF1] | 3.96 ± 0.68 | 4.21 ± 0.12 | – | –
NCLPKHLLHSVNQRFGSNNTSGS [KLHDC2] | – | – | 2.69 ± 0.33 | 2.99 ± 0.28
HDDGYMICCDKCSVWQHIDCMGID [KMT2E] | 2.67 ± 0.29 | 2.92 ± 0.42 | – | –
GIDIMKTSFPGRGSIPEFFHIMKR [AASDHPPT] | 2.33 ± 0.59 | 2.501 ± 0.013 | – | –
VTVKDETATMKDLEAEVKDTTRVE [R3HDM1] | 5.33 ± 0.17 | 5.56 ± 0.053 | – | –
QNFLDPGYPLPKLDMNFSLENREE [ZNF449] | 5.02 ± 0.24 | 4.74 ± 0.29 | – | –
KAFLTKTMLIVHHRTHTGERPYGC [ZNF649] | 2.45 ± 0.3 | 2.03 ± 0.23 | – | –
FKTYISPWERAMGVDPQQKMELGI [MYOZ1] | 2.42 ± 0.25 | 2.31 ± 0.38 | – | –
NDSGICMSPESYLGSPQHSPSTRG [ATF4] | 4.53 ± 0.29 | 4.86 ± 0.15 | – | –
VVTSAREHIYDLRSLENYHFVDEH [CLINT1] | 2.85 ± 0.51 | 3.15 ± 0.45 | – | –

Sequence | protein stability index [1] | protein stability index [2] | protein stability index (treatment: DMSO, c terminus: native) | protein stability index (treatment: MLN4924 1 uM, 8 h, c terminus: native)
DLIGLPWVCFIYTIMSLASLLFVV [SLC2A12] | 4.15 ± 0.79 | 3.95 ± 0.71 | – | –
EMLGRKCLTLATAVVQLYLALPPG [WAS] | 3.02 ± 0.3 | 3.3 ± 0.55 | – | –
TSRWSSMEIMEAYSVARQFNLTPP [KCNAB2] | 2.57 ± 0.22 | 2.84 ± 0.084 | – | –
DALDKIRYESLTDPSKLDSGKELK [HSP90AB1] | 5.06 ± 0.1 | 5 ± 0.16 | – | –
TTPSTSSSSSFDPSVFDGLGDLLM [SNAP91] | 3.32 ± 0.21 | 3.48 ± 0.28 | – | –
IGCKKPVSASGKEMDWAQMACHRC [SMG5] | 3.04 ± 0.34 | 3.48 ± 0.28 | – | –
LPVGTQLLTVTATDRDEGANGEVT [PCDHGA10] | 5.32 ± 0.37 | 5.4 ± 0.23 | – | –
RKGKDKENGSVSSSETPPPPPPPN [EIF5] | 5.15 ± 0.2 | 5.22 ± 0.28 | – | –
LQMEMKEDDVSFLMKHKSRKRRLF [TRIM35] | 3.35 ± 0.35 | 3.54 ± 0.16 | – | –
ECNECGKAFSRSSGLFNHRGIHNI [ZSCAN9] | 2.48 ± 0.59 | 2.16 ± 0.31 | – | –
GPSAEAYLLHPAAFHGAPSHLPTR [TBX6] | 3.31 ± 0.21 | 3.42 ± 0.16 | – | –
DSGVQACFNRSREYQLNDSAAYYL [GNAI1] | 2.8 ± 0.15 | 2.75 ± 0.17 | – | –
KLFAHSSDLLSEFKKHDADKVGLI [PPEF2] | 2.63 ± 0.3 | 2.68 ± 0.38 | – | –
HMFTPKLDKMLDPQVWREAATQVF [SLC6A17] | 2.11 ± 0.24 | 2.25 ± 0.47 | – | –
SKPGVYTSYKPYLNRDEEIIKQLQ [DENND6A] | – | 3.35 ± 0.42 | – | –
FLMGRVLYFHHYFPAMLFSSMLTG [POMT2] | 3.35 ± 0.21 | 3.37 ± 0.43 | – | –
AMDLGFFVVMGVIGGLLGATFNCL [CLCN6] | 2.68 ± 0.13 | 3.19 ± 0.056 | – | –
QQGLGASYRTESAQRQACMYASSA [TBX5] | 3.8 ± 0.17 | 3.82 ± 0.2 | – | –
DGKPFPELVLEQQLDREAQARHQL [PCDHGC5] | 4.92 ± 0.33 | 5.04 ± 0.27 | – | –
TPSEEHMKNKNNVTEFILLGLTQN [OR4A15] | 3.26 ± 0.33 | 3.21 ± 0.21 | – | –
EESGAQLLLEMLTFNPHKRISAFR [CDK4] | 2.21 ± 0.15 | 2.23 ± 0.18 | – | –
FFFSSPGNNNGTSIEDGQIPEIIF [BTBD1] | 2.39 ± 0.22 | 2.44 ± 0.33 | – | –
ETLQPSVWFGGREHVLMFAKLALY [TMEM175] | 2.52 ± 0.46 | 2.44 ± 0.43 | – | –
LPCSSYIDSYDPSTGEVYCRVPNS [ALDH8A1] | 2.65 ± 0.22 | 2.88 ± 0.24 | – | –
RGDIFERIVHLQETCDLGKIKPEA [NLN] | 3.59 ± 0.37 | 3.6 ± 0.29 | – | –
WNHIRLQRTAKGKPVLAKDSSNPY [AASDHPPT] | 2.9 ± 0.39 | 3.19 ± 0.3 | – | –

Sequence | protein stability index [1] | protein stability index [2] | protein stability index (treatment: DMSO, c terminus: native) | protein stability index (treatment: MLN4924 1 uM, 8 h, c terminus: native)
GGKSGELEQEEERLSKEWEDSKRW [CHGA] | 5.3 ± 0.33 | 5.07 ± 0.32 | – | –
KRFVAMKVVKSAQHYTETALDEIK [SRPK2] | 2.97 ± 0.51 | 2.92 ± 0.38 | – | –
LNAEAGHLDPGFLASDKTSAGNAP [C18orf25] | 5.07 ± 0.14 | 4.98 ± 0.14 | – | –
VPVLKPMDLMVEVSPRRIFANGHT [PPP2R2C] | 2.59 ± 0.48 | 2.75 ± 0.14 | – | –
FESLPENASHKLEVRLVPVSFEDP [ATE1] | 3.68 ± 0.13 | 3.68 ± 0.31 | – | –
SDTTHLVTLGGVLRQQLVVSKELR [KLHL13] | 3.04 ± 0.069 | 3.1 ± 0.3 | – | –
GGLVVSAASLAGCLGALCENTCLL [TSPAN10] | 2.79 ± 0.57 | 2.67 ± 0.54 | – | –
TFHHPTYGSCYTVDGVWTAQRPGI [SCNN1D] | 2.61 ± 0.41 | 2.61 ± 0.29 | – | –
LGKITFIRNSRPLVKKVEEDEAGG [UFD1] | 3.99 ± 0.34 | 3.94 ± 0.25 | – | –
TGFRTISSLEEIVEKQGDTIEYLK [TMEM192] | 3.98 ± 0.41 | 4 ± 0.2 | – | –
FTGSQPTAERITQLSAPHCKKLSL [ALDH8A1] | 2.89 ± 0.5 | 3.46 ± 0.35 | – | –
RVEFPRSGRGTGRGGGGGGGGGAP [SRSF1] | 4.7 ± 0.39 | 4.8 ± 0.28 | – | –
SAKNTSHPGSGTKVQFNLQFTKPN [SASS6] | 3.35 ± 0.12 | 3.61 ± 0.14 | – | –
EEADDTRYTQGTGGDEVDDSVSVN [ZC3H15] | 5.63 ± 0.19 | 5.62 ± 0.19 | – | –
DGSTYKIELEGISVMVMREILDYI [GAN] | 2.3 ± 0.39 | 1.93 ± 0.15 | – | –
FRNCGACVTLMQGHEGSVSSCHFA [WDR88] | 2.85 ± 0.62 | 2.59 ± 0.37 | – | –
QLLSAMGSLCSLWFGASVLSLLEL [SCNN1D] | 3.2 ± 0.61 | 3.19 ± 0.49 | – | –
GLGHGSTSRGGPWVGTGLAAALAG [CPOX] | 3.17 ± 0.21 | 3.21 ± 0.29 | – | –
PRGYFHTFAGDTCQVALNFANEEE [WASL] | 4.43 ± 0.27 | 4.34 ± 0.12 | – | –
EIPKNCVVAAVGKELIIFRLVAPT [WDR41] | 2.69 ± 0.6 | 2.28 ± 0.43 | – | –
VLMWLLTYVGALFNGLTLLLMAVV [RTN1] | 2.51 ± 0.29 | 2.42 ± 0.13 | – | –
GPEPKDKGSLPQPPITEVESQVFS [ZNF232] | 5.51 ± 0.078 | 5.36 ± 0.23 | – | –
QVAKTKQQIEEQRVQVQVVERAQQ [FLOT1] | 5.18 ± 0.16 | 5.32 ± 0.15 | – | –
LGLVARQEDSGLRDHSVRVLISNH [AUP1] | 3 ± 0.15 | 3.01 ± 0.36 | – | –
MADKAKPAKAANRTPPKSPGDPSK [TPPP] | 5.22 ± 0.25 | 5.39 ± 0.15 | – | –
